Laboratory results taken from paper PMC11569197.
pKd: −log10 of the molar value.

Tests used:
[1] = molecular target: Gtα-EYFP (cone transducin alpha subunit, GNAT2, with C-terminal EYFP) (European robin); assay: FRET or BRET; acceptor photobleaching FRET in transiently transfected, fixed QNR/K2 quail neuroretina cells; donor mTurquoise on ErCry4a, acceptor EYFP; confocal microscope, FRET efficiency (Dpost - Dpre)/Dpost
[2] = molecular target: cone-specific G-protein transducin alpha subunit employed as a Gtα/Giα chimera, non-myristoylated (European robin); assay: SPR; Biacore 3000, CM5 chip, amine coupling; Gtα/Giα immobilised, ErCry4a 5-100 nM (and 500 nM) injected; global fit with a two-state-reaction model; 10 mM HEPES/NaOH pH 7.4, 150 mM NaCl, 10 mM MgCl2, 0.005% Tween-20, 3.4 mM EDTA

Substance: mTurquoise-ErCry4a (N-terminally tagged ErCry4a) (natural protein)
- mean FRET efficiency [1]: 24.5%

Substance: European robin cryptochrome 4a (ErCry4a), purified recombinant (natural protein)
- pKd [2]: 7.70
- ka1 (two-state-reaction model) [2]: 221000 M⁻¹ s⁻¹
- kd1 (two-state-reaction model) [2]: 0.00438 s⁻¹
